Test results from the supplement of paper PMC12764529.
± gives the half width of the 95% confidence interval.

Tests used:
[1] = folding stability dG unfold from trypsin proteolysis; higher = more stable
Outline: (§1)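 Unfolding free energy was derived, per protease or combined, against a sequence-predicted unfolded-state K50 and a shared folded-state K50, starting from K50 inferred by Bayesian fitting of sequencing counts. Digestion with trypsin and chymotrypsin was carried out on designed mini-proteins under 80 residues without cysteine in a PA-tagged cDNA display construct. Only designs with AlphaFold2 dimer inter-PAE above 15 were kept.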

[2] = folding stability dG unfold from chymotrypsin proteolysis; higher = more stable
Outline: as §1

[3] = folding stability dG unfold (combined trypsin and chymotrypsin); higher = more stable
Outline: as §1

| Sequence | folding stability dG unfold [1] [kcal/mol] | folding stability dG unfold [2] [kcal/mol] | folding stability dG unfold [3] [kcal/mol] |
| --- | --- | --- | --- |
| SAGGSAGGEPELNVLETLEETVDPNTGLTYTTELVQLPDGTLVTVKTLYDKATGTWTVLETTPESAGGSAGG [r6_262_JUSTAS] | 2.4 ± 0.18 | 2.07 ± 0.079 | 2.18 ± 0.13 |
| SAGGSAGGEVEIEVTEEEEVPGLPDQEIVTKAKLPDGKTVTIKRTVDPKTGKVSVSFSVIEPPLSAGGSAGG [r6_337_JUSTAS] | 0.44 ± 0.19 | 0.355 ± 0.2 | 0.363 ± 0.24 |
| SAGGSAGGEVKIEVNKEKGYLLITVPKEEAEEIAKALKEKFGIKEVKIEVDEETDEVHILVKLESAGGSAGG [r6_661_TrROS_Hall] | 2.5 ± 0.14 | 2.98 ± 0.12 | 2.59 ± 0.27 |
| SAGGSAGGEVKTIEIEIEITDEDGRKYRIKMEAEVLPNGEIIIRMEIEDEETNETYEMTIVLKPSAGGSAGG [r6_726_TrROS_Hall] | 3.57 ± 0.19 | 4.55 ± 0.12 | 4.35 ± 0.18 |
| SAGGSAGGEYELLTFTLEFEVPPEVEHVEFEAELEDFDEILEVRARPDPETGTVRVEIVARARPSAGGSAGG [r6_712_TrMRF] | 1.46 ± 0.044 | 2.62 ± 0.06 | 2.28 ± 0.19 |
| SAGGSAGGFIEYDPKTGTITVTFPSSVSPEDVRAAIEAAGFPATPVAYSYDPSPPVRTVTFKVASAGGSAGG [r6_396_JUSTAS] | 1.14 ± 0.02 | 0.832 ± 0.11 | 1.06 ± 0.092 |
| SAGGSAGGGAAPRTRVIEVLFPVPPDVTVEEIAERLRALYPDAVLVAEAERLPDGYVRVVVTLRSAGGSAGG [r6_566_TrMRF] | 2.49 ± 0.031 | 3.54 ± 0.078 | 3.19 ± 0.083 |
| SAGGSAGGGGMMKTITIPLEELKAKLAKETGKPLTIEEIKEALKKEGIKLLSVDKEKGTITISESAGGSAGG [r6_767_JUSTAS] | 2.4 ± 0.1 | 1.73 ± 0.09 | 2.16 ± 0.13 |
| SAGGSAGGGGSSMTIVDPKDVPFGQTFTVTTYAPGGKKISTTTLTVDVPPPVWRTDGNGKWFLESAGGSAGG [r6_487_JUSTAS] | 0.163 ± 0.19 | 0.28 ± 0.27 | 0.4 ± 0.2 |
| SAGGSAGGGGVAEEVAALLKALGLKVKKIEVEVEEVPPDKKVARVKVTAELPTKKVTFELRVEVSAGGSAGG [r6_532_TrMRF] | 1.97 ± 0.092 | 3 ± 0.068 | 2.76 ± 0.28 |
| SAGGSAGGGHMPVTKTVQLPGRTVTLTYYPEKGTVKITFPEDGTEKTVPISPSETIEDVIKKLSSAGGSAGG [r6_166_JUSTAS] | 2.32 ± 0.069 | 2.74 ± 0.036 | 2.6 ± 0.061 |
| SAGGSAGGGIDLSNPEDIEEALKKSGIVGVFKVKIIPLPGGKWKKIIEPVKLLPKEELEKAGLISAGGSAGG [r6_402_TrMRF] | 0.825 ± 0.043 | 0.444 ± 0.12 | 0.637 ± 0.095 |
| SAGGSAGGGIEPGKKVKAKATLILPGGKPIPFTATFTPDYVTLDLGKGSLTVPVEFIAHLEIEDSAGGSAGG [r6_132_TrMRF] | 0.371 ± 0.052 | 1.48 ± 0.079 | 1.11 ± 0.053 |
| SAGGSAGGGKMEYDPKDGTMRWRDPANGIEHESRIEIPPIVIPADDLPKLREQFPPDMPVVLAGSAGGSAGG [r6_104_TrROS] | 0.238 ± 0.034 | 0.94 ± 0.062 | 0.722 ± 0.043 |
| SAGGSAGGGKSFSIPVDDAVILDYDPVTKRLTILLPGPGVELVLPLDKVKRIEIDPETGTIHVESAGGSAGG [r6_313_TrMRF] | 1.54 ± 0.022 | 1.61 ± 0.02 | 1.64 ± 0.073 |
| SAGGSAGGGMEPVTETITVPITTPEELEAVKKEAEARREKEGLVSYEISESPDGTVTITITKPVSAGGSAGG [r6_730_JUSTAS] | 0.155 ± 0.1 | 0.334 ± 0.071 | 0.427 ± 0.34 |
| SAGGSAGGGMPISISITVTLSDGTVLEFTVTVPENAPDPASVAAALAAEIKAAHPDVAVTFTPASAGGSAGG [r6_132_JUSTAS] | 0.849 ± 0.054 | 1.72 ± 0.025 | 1.53 ± 0.077 |
| SAGGSAGGGMVKVTLRITYYNSTGPYTSDRVFELPPDEVEALIEAIPPPPDATPEVEVEREPLGSAGGSAGG [r6_428_JUSTAS] | 0.8 ± 0.042 | 1.53 ± 0.15 | 1.22 ± 0.14 |
| SAGGSAGGGPPGTTTTTISTPDGPVTVTVSPTSVTVTRPGSNETVTSSGSPTTTLEEIAAEIAASAGGSAGG [r6_317_JUSTAS] | 2.88 ± 0.14 | 1.58 ± 0.052 | 2.24 ± 0.11 |
| SAGGSAGGGPPSPVQTSTTSFSVSGDSSVTNVTVVTLPDGSLLVETTVFPSSGGSVSSLSSIPASAGGSAGG [r6_670_JUSTAS] | 1.27 ± 0.031 | 0.218 ± 0.21 | 0.855 ± 0.058 |
| SAGGSAGGGRYLVLIEFENGFPLAYVFPSPEDVVEHTRLLEERLGYPIKRIEVYKIDPNGKAYASAGGSAGG [r6_162_TrMRF] | 2.41 ± 0.053 | 2.42 ± 0.12 | 2.53 ± 0.086 |

| Sequence | folding stability dG unfold [1] [kcal/mol] | folding stability dG unfold [2] [kcal/mol] | folding stability dG unfold [3] [kcal/mol] |
| --- | --- | --- | --- |
| SAGGSAGGGSFTLTEEPGGVLTITTPDKTLTVNLEGVTPDPNSDTTFSFTLSLDPDDSASVTSSSAGGSAGG [r6_202_JUSTAS] | 1.44 ± 0.023 | 1.43 ± 0.091 | 1.47 ± 0.1 |
| SAGGSAGGGTVLAEEEEPETGLVRRLVRLPDGTLVESVSLVDPETGEVLSEEVLRETPLPPPGLSAGGSAGG [r6_928_JUSTAS] | 0.898 ± 0.08 | 1.41 ± 0.054 | 1.29 ± 0.12 |
| SAGGSAGGIEITEISRSEELLKLDVPEDTLVLKVKHPDGKEIEVTFPANIPIEEAKEKAKEFVESAGGSAGG [r6_986_TrMRF] | -0.248 ± 0.079 | -0.176 ± 0.15 | -0.188 ± 0.18 |
| SAGGSAGGIKELLEALGFEVVDVEPTDNKFMIMIRNPEEGRVVVIEIEWDGPPKIEIHPMPPNASAGGSAGG [r6_195_TrROS] | 2.38 ± 0.065 | 2.11 ± 0.04 | 2.31 ± 0.13 |
| SAGGSAGGIYIFFPPEDLEPIAPFTITIEVKRRDPDGDEPQPRKQTIPIRIYRAPNNNLMIEPGSAGGSAGG [r6_278_TrROS] | 0.742 ± 0.11 | 0.919 ± 0.19 | 0.881 ± 0.087 |
| SAGGSAGGKAEKITLEIPNTGKKVEIIKPENKAIITVYDKNGKPIKTIVVPPNFPGIEDAVKADSAGGSAGG [r6_424_TrMRF] | -0.267 ± 0.068 | 0.773 ± 0.061 | 0.434 ± 0.12 |
| SAGGSAGGKETKTITMIIKVKDENGKELKAGDKVEIEINGKKITIEVTYNKKTGYLVVKATIKPSAGGSAGG [r6_657_TrROS_Hall] | 2.47 ± 0.096 | 3.87 ± 0.11 | 3.37 ± 0.17 |
| SAGGSAGGKEVYKIKVKNAEIVDFDEETGELTIKLKETGKEIKIPLKAIKKIEITDDYIYIYVESAGGSAGG [r6_313_TrROS_Hall] | 3.64 ± 0.25 | 4.21 ± 0.13 | 4.15 ± 0.17 |
| SAGGSAGGKIDLKDLKIVKIETVKNENGETFYRVVIEVDGKKIVLTVPENMSLEELLKKLKELSSAGGSAGG [r6_232_TrROS_Hall] | 3.36 ± 0.13 | 4.22 ± 0.055 | 4.07 ± 0.081 |
| SAGGSAGGKIKLDGKEIVIVMSKEEKEKIAKELKEKFPNVKIKVVEGMSEEEAAKKADLVIVFDSAGGSAGG [r6_679_TrROS_Hall] | -0.142 ± 0.18 | 0.0544 ± 0.23 | -0.269 ± 0.39 |
| SAGGSAGGKIKPGEKVKVKVKIKNKNGEVFEATATVVDGKIFIEVDGKIYEISADDIEEIEVEPSAGGSAGG [r6_132_TrROS_Hall] | 1.47 ± 0.042 | 2.92 ± 0.099 | 2.37 ± 0.22 |
| SAGGSAGGKIKVEIEYNGEKKEMTLDEIKALLKKNLPPNATIRVKKNGKTIPLKKVKVKKLKKKSAGGSAGG [r6_936_TrROS_Hall] | 1.08 ± 0.069 | 1.65 ± 0.15 | 1.35 ± 0.18 |
| SAGGSAGGKIKVEYNPENNMYRVTIKLPGGKIKIYIPPGQTEEQGEKNVKHMAKELLKKNGIKISAGGSAGG [r6_679_TrROS] | -0.0228 ± 0.46 | 1.47 ± 0.14 | 1.17 ± 0.44 |
| SAGGSAGGKIPPNMEIEPWRFGGKPYFLIRMPNGSYQVFEFKGDKLKIKETIPVPPGDWILIKFSAGGSAGG [r6_476_TrROS] | 1.48 ± 0.04 | 1.98 ± 0.16 | 1.81 ± 0.14 |
| SAGGSAGGKITITLPGAEIVSVEESEDGKTITITVRLENGELLKITLKRVNGKWYITKIELLKPSAGGSAGG [r6_718_TrROS_Hall] | 3.54 ± 0.086 | 4.524 ± 0.038 | 4.34 ± 0.068 |
| SAGGSAGGKKFKPGQVVLDPKTKELYVIKGEVTVKEDGSLSIKVEKVKLPKPKKLTKEQLEKLKSAGGSAGG [r6_771_TrROS_Hall] | 0.687 ± 0.067 | 0.613 ± 0.23 | 0.783 ± 0.16 |
| SAGGSAGGKKIRIRIPLPDGTWVEVEVYFSEDGIYSFYIPPTGKLVLIDVGENGIKITIIDLPPSAGGSAGG [r6_58_TrMRF] | 4.1 ± 0.32 | 4.47 ± 0.27 | 4.38 ± 0.43 |
| SAGGSAGGKKKKKKKKKYYTFVLKVKEKDLTPEEIKKLFPNVKIEKKDGYLVITVKVNGKEIKFSAGGSAGG [r6_738_TrROS_Hall] | 1.43 ± 0.19 | 2.66 ± 0.12 | 2.11 ± 0.31 |
| SAGGSAGGKKKVLILPKGKKKEYTIEEAKKILKEKLPENAKVRLLETGKEYPVKDLLKKLGIDLSAGGSAGG [r6_936_TrMRF] | -0.276 ± 0.28 | -0.411 ± 0.65 | -0.207 ± 0.45 |
| SAGGSAGGKKKVLLVKVEIELPNGEKLELVAESEEEALEALKKLLEKKGLKIKKVEIVELEEKESAGGSAGG [r6_405_TrROS_Hall] | 1.64 ± 0.071 | 2.41 ± 0.051 | 2.17 ± 0.077 |
| SAGGSAGGKKTVEIEMTVDELLAALKSLSEEELKNVKIIGKDGKEFTLEDLEKNPGKIYKIEVKSAGGSAGG [r6_428_TrROS_Hall] | 0.694 ± 0.07 | 2.23 ± 0.074 | 1.82 ± 0.16 |
